From the Human Domainome abundance scans (Beltran et al. 2025) come the findings set out here.

± gives the uncertainty stated by the source.

The chains are these.
B1: Peroxisome proliferator-activated receptor delta, residues 71 to 145; numbered along this chain, Q03181 (parent)
chain: NMECRVCGDKASGFHYGVHACEGCKGFFRRTIRMKLEYEKCERSCKIQKKNRNKCQYCRFQKCLALGMSHNAIRF

The variants in this data set derive from B1. As to the kind of experiment: abundance fitness (aPCA) (normalised: wild type 0, dead -1); higher = more abundant; growth selection in yeast, the domain comes from the species named. The note with it: Homo sapiens.
Regarding NMECRVCGDKASGFHYGVHACEGCKGFFRRTIRMKLEYKKCERSCKIQKKNRNKCQYCRFQKCLALGMSHNAIRF, the abundance fitness was 0.017 ± 0.057.

In the case of NMECRVCGDKASGFHYGVHACEGCFGFFRRTIRMKLEYEKCERSCKIQKKNRNKCQYCRFQKCLALGMSHNAIRF, the abundance fitness was -0.108 ± 0.081. Turning to NMECRVCGDKASGFHYGVHACEGCKGFFRATIRMKLEYEKCERSCKIQKKNRNKCQYCRFQKCLALGMSHNAIRF, the abundance fitness was -0.359 ± 0.055. The figure for NMECRVCGDKASGFHYGVHACEGCKGFFRKTIRMKLEYEKCERSCKIQKKNRNKCQYCRFQKCLALGMSHNAIRF is -0.07 ± 0.081; for NMECRVCGDKASGFHYGVHACEGCKGFFRRTIRMKLEYEKCERSCKIQKKNRNKCQYCMFQKCLALGMSHNAIRF it is -0.023 ± 0.053.

For the variant NMECRVCGDKASGFHYGVHACEGCKGFFRRTIRMKLEYEKCERSCKIQKKNRNKCQYCIFQKCLALGMSHNAIRF, the abundance fitness was -0.837 ± 0.19.

For the variant NMECRVCGDKASGFHGGVHACEGCKGFFRRTIRMKLEYEKCERSCKIQKKNRNKCQYCRFQKCLALGMSHNAIRF, the abundance fitness is -0.013 ± 0.044. On to NMECRVCGDKASGFHYGVHACEGIKGFFRRTIRMKLEYEKCERSCKIQKKNRNKCQYCRFQKCLALGMSHNAIRF, for which the abundance fitness was -0.464 ± 0.13. In the case of NMECRVCGDKASGFHYGVHACEGCKGFFRRTIRMKLEYEKCERSCKIQKKNRNKCQYCRFQKCEALGMSHNAIRF, the abundance fitness was -0.397 ± 0.073. Under NMECRVCGDKASGFHYGVHACERCKGFFRRTIRMKLEYEKCERSCKIQKKNRNKCQYCRFQKCLALGMSHNAIRF stands -0.179 ± 0.036. Turning to NMECRVCGDKASGFHYGVHACEGCKGFFRRTIRMKLEYEKCERSCKIQKKNRNKCQYCRFQGCLALGMSHNAIRF, the abundance fitness is -0.661 ± 0.074.

Regarding NMECRVCGDKASGFHYGVHACEGCKGFFRRTIRMKLEYEKCERSCKIQKKNRNKVQYCRFQKCLALGMSHNAIRF, the abundance fitness is -1.03 ± 0.13. Take NMECRVCGDKASGFHYGVHACEGCKGFFRRTIRMKLEYEKCERSCKIQKKNRNKCQYCRFQKCLALGMSHIAIRF: the abundance fitness is -0.361 ± 0.14. Under NMECRVCGDKASGFHYGVHACEGCKGFFRRTIRMKLEYEKCERSCKIQKKNRNKCQYCRFQKCLALGMSHEAIRF stands 0.142 ± 0.048.

Regarding NMEGRVCGDKASGFHYGVHACEGCKGFFRRTIRMKLEYEKCERSCKIQKKNRNKCQYCRFQKCLALGMSHNAIRF, the abundance fitness was -0.911 ± 0.12. Consider NMECRVCGDKASGFHYGVHGCEGCKGFFRRTIRMKLEYEKCERSCKIQKKNRNKCQYCRFQKCLALGMSHNAIRF, for which the abundance fitness is -0.847 ± 0.11.

Turning to NMECRVCGDKASGFHYGVHACEGCKGFFRRTIRMKLEYEKGERSCKIQKKNRNKCQYCRFQKCLALGMSHNAIRF, the abundance fitness is -0.684 ± 0.089. The figure for NMECRVCGDLASGFHYGVHACEGCKGFFRRTIRMKLEYEKCERSCKIQKKNRNKCQYCRFQKCLALGMSHNAIRF is -0.018 ± 0.039; for NMECRVCGDKASGFHYGVHACEGCKGFFRRTIRMKLEYEKCERSCKIQKENRNKCQYCRFQKCLALGMSHNAIRF it is 0.111 ± 0.045; for NMECRVCGDKASGFHYGVHACEGCKGFFRRTIRMQLEYEKCERSCKIQKKNRNKCQYCRFQKCLALGMSHNAIRF it is 0.093 ± 0.048.

On to NMECRVCGDKASGFHYGVHACEGCKGFFRRTIRMKLEYEKCERSCKIQKKNRNKCQYCRFQKCLALAMSHNAIRF, for which the abundance fitness was -0.411 ± 0.07.

Turning to NMKCRVCGDKASGFHYGVHACEGCKGFFRRTIRMKLEYEKCERSCKIQKKNRNKCQYCRFQKCLALGMSHNAIRF, the abundance fitness is -0.089 ± 0.057. As to NMECRVCGDKASGFHYGVHACEGCKGFFLRTIRMKLEYEKCERSCKIQKKNRNKCQYCRFQKCLALGMSHNAIRF, the abundance fitness is 0.139 ± 0.035.

As to NMECRVCGDKASGFHYGVHACEGCKGFFTRTIRMKLEYEKCERSCKIQKKNRNKCQYCRFQKCLALGMSHNAIRF, the abundance fitness was found to be 0.197 ± 0.044. Regarding NMECRVCGDKASGFHYGVHACEGCKGFFDRTIRMKLEYEKCERSCKIQKKNRNKCQYCRFQKCLALGMSHNAIRF, the abundance fitness stood at 0.131 ± 0.056. The figure for NMECRVCGDKASGFHYGVHACEGCKGFFRRTIRMKLEYEKCERSCKIQKKNRNKCQYCRFQKCLAIGMSHNAIRF is 0.106 ± 0.059. The figure for NMECRVCGDKASGFHYGVHACEGCKGFFRRTIRMKLEYEKCERSCKIQKKNRNKCQYCRFQKCLAWGMSHNAIRF is -0.629 ± 0.12.

Consider NMECRVCGDKASGFHYGVHACEGCKGFFRRTIRMKLEYEKCERSCKIQKKNRNKCQYCRFQKCLARGMSHNAIRF, for which the abundance fitness is -0.315 ± 0.046.

Take NMECRVCGDKASGFHYGVHACEGCKGFFRRTIRMKLEYEKCERSCKIQKKNRNKCQVCRFQKCLALGMSHNAIRF: the abundance fitness was -0.675 ± 0.087. With NMECRVCGDKASGFHYGVHACEGCKGFFRRTIRMKLEYEKCERSCKIQKKNRNKCQKCRFQKCLALGMSHNAIRF, the abundance fitness is -0.507 ± 0.1.

In the case of NMECRVCGDKASGFHYGVHACEGCKGDFRRTIRMKLEYEKCERSCKIQKKNRNKCQYCRFQKCLALGMSHNAIRF, the abundance fitness is -0.41 ± 0.11. The figure for NMECRVCGDKAGGFHYGVHACEGCKGFFRRTIRMKLEYEKCERSCKIQKKNRNKCQYCRFQKCLALGMSHNAIRF is -0.274 ± 0.046; for NMECRVCGDKAHGFHYGVHACEGCKGFFRRTIRMKLEYEKCERSCKIQKKNRNKCQYCRFQKCLALGMSHNAIRF it is -0.238 ± 0.092.

Turning to NMECRVCGDKASGFHYGVHACEGCKGFFRRTIRMKLEYEKCERSCKWQKKNRNKCQYCRFQKCLALGMSHNAIRF, the abundance fitness is -0.316 ± 0.034. For GMECRVCGDKASGFHYGVHACEGCKGFFRRTIRMKLEYEKCERSCKIQKKNRNKCQYCRFQKCLALGMSHNAIRF, the abundance fitness was -0.212 ± 0.049. For the variant TMECRVCGDKASGFHYGVHACEGCKGFFRRTIRMKLEYEKCERSCKIQKKNRNKCQYCRFQKCLALGMSHNAIRF, the abundance fitness is -0.012 ± 0.067.
